Laboratory results taken from US20230265164A1 (MIT, published 2023).

T1: CCL25 (UniProt O15444 24-150, limits assumed)
T1 sequence (looked up): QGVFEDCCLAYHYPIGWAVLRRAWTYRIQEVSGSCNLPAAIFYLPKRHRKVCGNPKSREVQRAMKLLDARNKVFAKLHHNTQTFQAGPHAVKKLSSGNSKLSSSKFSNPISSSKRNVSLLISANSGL

T2: IL8 (UniProt P10145 28-99, limits assumed)
T2 sequence (looked up): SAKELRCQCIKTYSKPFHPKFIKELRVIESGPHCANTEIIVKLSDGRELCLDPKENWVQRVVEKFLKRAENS

B1: CCR9^QTY-Fc (Fc fusion)
chain: MTPTDFTSPIPNMADDYGSESTSSMEDYVNFNFTDFYCEKNNVRQFASHYQPPQYWQTYTTGAQGNSQTTQTYWYCTRVKTMTDMYQQNQATADQQYQTTQPYWATAAADQWKFQTFMCKTTNSMYKMNYYSCTQQTMCTSTDRYTATAQAMRAHTWREKRQQYSKMTCYTTWTQAAAQCTPETQYSQIKEESGIAICTMVYPSDESTKQKSATQTQKTTQGYYQPYTTMACCYTTTTHTQTQAKKSSKHKAQKTTTTTQTTYTQSQYPYNCTQQTQTTDAYAMFISNCATSTNTDTCYQTTQTTAYYHSCQNPTQYTYTGERFRRDLVKTLKNLGCISQAQWVSFTRREGSLKLSSMLLETTSGALSLTETSQVAPAHHHHHHHHHHTETSQVAPAHHHHHHHHHHGSKLVDPRGPTIKPCPPCKCPAPNLLGGPSVFIFPPKIKDVLMISLSPIVTCVVVDVSEDDPDVQISWFVNNVEVHTAQTQTHREDYNSTLRVVSALPIQHQDWMSGKEFKCKVNNKDLPAPIERTISKPKGSVRAPQVYVLPPPEEEMTKKQVTLTCMVTDFMPEDIYVEWTNNGKTELNYKNTEPVLDSDGSYFMYSKLRVEKKNWVERNSYSCSVVHEGLHNHHTTKSFSRTPGK
modifications: NT647 (RED-NHS) fluorescent dye on lysines/N-terminus in the MST assay; positions not given.
B2: CXCR2^QTY-Fc (Fc fusion)
chain: MEDFNMESDSFEDFWKGEDLSNYSYSSTLPPFLLDAAPCEPESLEINKYYTTTTYAQTYQQSQQGNSQTMQTTQYSRVGRSVTDTYQQNQAQADQQYAQTQPTWAASKVNGWIFGTFLCKTTSQQKETNYYSGTQQQACTSTDRYLAIVHATRTLTQKRYLVKYTCQSTWGQSQQQAQPTQQYRRTVYSSNVSPACYEDMGNNTANWRMQQRTQPQSYGYTQPQQTMQYCYGFTLRTLFKAHMGQKHRAMRTTYATTQTYQQCWQPYNQTQQADTLMRTQVIQETCERRNHIDRAQDATETQGTQHSCQNPQTYAYTGQKFRHGLLKILAIHGLISKDSLPKDSRPSFVGSSSGHTSTTLTETSQVAPAHHHHHHHHHHGSKLVDPRGPTIKPCPPCKCPAPNLLGGPSVFIFPPKIKDVLMISLSPIVTCVVVDVSEDDPDVQISWFVNNVEVHTAQTQTHREDYNSTLRVVSALPIQHQDWMSGKEFKCKVNNKDLPAPIERTISKPKGSVRAPQVYVLPPPEEEMTKKQVTLTCMVTDFMPEDIYVEWTNNGKTELNYKNTEPVLDSDGSYFMYSKLRVEKKNWVERNSYSCSVVHEGLHNHHTTKSFSRTPGK
modifications: NT647 (RED-NHS) fluorescent dye on lysines/N-terminus in the MST assay; positions not given.
notes: also called CXCR29QTY-Fc

Tests used:
CCL25 = target: T1, CCL25; test: MicroScale Thermophoresis; 5 nM NT647-labeled receptor-Fc against a ligand gradient, 25 C
Description: (§1) MicroScale Thermophoresis (MST) is an optical method detecting changes in thermophoretic movement and TRIC of the protein-attached fluorophore upon ligand binding. Active labelled proteins contribute to the thermophoresis signal upon ligand binding. […] Herein ligand binding experiments were carried out with 5 nM NT647-labeled protein in 1×PBS, 10 mM DTT buffer with different concentration of arginine, against a gradient of respective ligands on a Monolith NT.115 pico instrument at 25° C. Synthesized receptors were labeled with Monolith NT™ 2nd generation protein labeling kit RED-NHS (NanoTemper Technologies) so as to obtain unique fluorescent signals. MST time traces were recorded and analyzed to obtain the highest possible signal-to-noise levels and amplitudes, >5 Fnorm units. The recorded fluorescence was plotted against the concentration of ligand, and curve fitting was performed using the Kd fit formula derived from the law of mass action. For clarity, binding graphs of each independent experiment were normalized to the fraction bound (0=unbound, 1=bound). MST experiments were performed in the Center for Macromolecular Interactions at Harvard Medical School.

IL8 = target: T2, IL8; test: as above
Description: as §1

| Binder | Kd (CCL25) | Kd (IL8) |
| --- | --- | --- |
| B1 | 37.2 nM |  |
| B2 |  | 60.3 nM |
